According to PMC10011430:

Target: DENV NS2B3 protease, active site mutant NS2B3^S135A (coexpressed NS2B hydrophilic core and NS3 prote (Dengue virus (serotype not given)))
Assay: native gel or EMSA

| Substance | Kd |
| --- | --- |
| cGAS cleavage product C-terminal (CP-C, 125-522) (from UniProt Q8N884 125-522) (domain or fragment) | 39.2 µM |
| full-length human cyclic GMP-AMP synthase (cGAS) (from UniProt Q8N884 1-522) (natural protein) | 21.6 µM |
